Assay [1] concerns tyrosine phosphorylation of endogenous PSTPIP in Baf3 cells. The assay can be described thus: Tyrosine phosphorylation of endogenous PSTPIP in Baf3 cells (immunoprecipitation, anti-phosphotyrosine blot). In kind it is cell-based, murine. As to the method: Baf3 cells were Iysed in 1% Triton, 50 mM HEPES, 10% glycerol and 5 mM EDTA containing 1 μg/ml aprotinin, PMSF, leupeptin and pepstatin with 1 mM Sodium Vanadate and 10 mM lodoacetic acid. Cells were treated with 0.1 mM Pervanadate for 4 hours before Iysis. Immunoprecipitations were performed in the vanadate-containing Iysis buffer using 1 μg/ml anti-PSTPIP polyclonal antibody and 400 μg of Iysate protein at 4° C. overnight. Western blots were performed using 1 μg/ml affinity purified anti-PSTPIP or 1:5000 dilution of commercial 4G10 anti-phosphotyrosine monoclonal (Upstate Biotech). Signal was detected by HRPO-ECL reagents (Pierce). The C221 -S mutant was as previously described (Cheng et al., (1996) supra). The PTP HSCF D197 -A mutant was generated using PCR. Mutagenesis primer D197A.F ([…]) (SEQ ID NO:24), corresponding to nucleotide 591, and primer D197A.R ([…]) (SEQ ID NO:25) which corresponds to the stop codon, were used in PCR to generate a fragment that could be cut with Mscl and Xbal. pRK.HA.38 WT, a plasmid which encoded the wild type enzyme under the control of the cytomegalovirus promoter (Cheng et al., (1996) supra), was digested with Clal and Mscl and the resulting 600 bp fragment was ligated with the Mscl-Xbal PCR fragment into the Clal and Xbal sites of pRK.tkneo. […]

Assay [2] has as its target T1, interaction between PTP HSCF and PSTPIP (Mus musculus, UniProt P97814).
T1 construct: The longest two hybrid clone was used to isolate a full length cDNA from the original Baf3 two hybrid library; made in house; host or cells: PSTPIP: in vitro transcribed/translated (Promega TnT rabbit reticulocyte system); GST-PTP HSCF fusion: E. coli DH5-alpha, pGEX-4T-2
T1 sequence (P97814 1-415): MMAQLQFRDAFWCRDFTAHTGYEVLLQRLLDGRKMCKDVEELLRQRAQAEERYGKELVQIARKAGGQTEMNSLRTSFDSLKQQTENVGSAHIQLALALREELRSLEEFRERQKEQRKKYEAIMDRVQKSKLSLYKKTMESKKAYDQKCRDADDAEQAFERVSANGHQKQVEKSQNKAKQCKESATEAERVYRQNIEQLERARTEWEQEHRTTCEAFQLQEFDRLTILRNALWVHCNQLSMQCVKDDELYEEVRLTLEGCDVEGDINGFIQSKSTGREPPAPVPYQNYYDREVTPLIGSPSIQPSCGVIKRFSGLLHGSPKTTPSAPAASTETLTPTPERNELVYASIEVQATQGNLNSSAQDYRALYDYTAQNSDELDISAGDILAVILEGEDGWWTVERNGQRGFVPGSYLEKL
The assay can be described thus: Peptide inhibition of in vitro binding: GST-PST-rich+CTH PTP HSCF precipitating in vitro translated PSTPIP. Also on record: species or system murine. The settings on record: FIG. 4D. The protocol:
The binding was carried out according to the method of Wong and Johnson (Wong et al., J. Biol. Chem. 271(35):20981-20984 (1996)). Briefly, 1 μg of plasmid with either the PSTPIP protein or PTP HSCF under the control of the Sp6 promoter was in vitro transcribed/translated using the Promega TnT Rabbit Reticulocyte system. Samples were diluted in 50 mM HEPES, pH 7.2, 1% triton X 100, 10% glycerol, 100 mM NaCI, 5 mM EDTA and 2 μg/ml each of leupeptin, pepstatin, aprotinin, and PMSF. […] This was reacted for 1 hour at 4° C. and then the resin washed 6 times in HEPES/Triton binding buffer before SDS gel electrophoresis. The peptides were synthesized on an automated Milligen 9050 Peptide Synthesizer using standard solid phase chemistry with FMOC protected amino acids on a p-alkoxybenzyl alcohol resin. Dried peptides were re-suspended in the HEPES/Triton Binding buffer at a concentration of 10 mg/ml. Peptide inhibition was performed by adding the peptide first to the in vitro translation product and then the GST-fusion followed by the GSH-Sepharose. The binding/washing steps were as previously described. The peptides synthesized and the PTPs they were derived from were: […]

Assay [3] concerns the target in vitro transcribed and translated PSTPIP (murine). The experiment in a line: peptide competition of the pull-down of in vitro translated PSTPIP by GST-PST-rich+CTH PTP HSCF.
Assay [4] has as its target T2, in vitro transcribed and translated PSTPIP (murine).
T2 chain: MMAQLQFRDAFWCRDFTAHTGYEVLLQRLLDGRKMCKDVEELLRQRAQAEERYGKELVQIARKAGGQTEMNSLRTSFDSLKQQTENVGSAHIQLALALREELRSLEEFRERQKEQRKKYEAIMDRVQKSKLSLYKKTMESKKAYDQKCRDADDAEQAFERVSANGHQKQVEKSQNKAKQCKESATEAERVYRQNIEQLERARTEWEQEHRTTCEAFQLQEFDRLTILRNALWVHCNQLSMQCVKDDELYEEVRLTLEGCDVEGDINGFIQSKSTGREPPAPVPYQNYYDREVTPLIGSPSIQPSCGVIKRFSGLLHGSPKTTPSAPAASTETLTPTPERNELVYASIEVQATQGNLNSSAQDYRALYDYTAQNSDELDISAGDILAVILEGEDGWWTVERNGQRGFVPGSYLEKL
Described as above.

Assay [5] has as its system PTP HSCF. The experiment in a line: In vitro binding assay: GST fusion precipitation of in vitro translated PTP HSCF. Conditions: GST fusion protein ~1 microgram per ml or ~1.5 micromolar; compared with polyclonal anti-PTP HSCF antibody; FIG. 3. As to the method:
The binding was carried out according to the method of Wong and Johnson (Wong et al., J. Biol. Chem. 271(35):20981-20984 (1996)). Briefly, 1 μg of plasmid with either the PSTPIP protein or PTP HSCF under the control of the Sp6 promoter was in vitro transcribed/translated using the Promega TnT Rabbit Reticulocyte system. Samples were diluted in 50 mM HEPES, pH 7.2, 1% triton X 100, 10% glycerol, 100 mM NaCI, 5 mM EDTA and 2 μg/ml each of leupeptin, pepstatin, aprotinin, and PMSF. […] This was reacted for 1 hour at 4° C. and then the resin washed 6 times in HEPES/Triton binding buffer before SDS gel electrophoresis. The peptides were synthesized on an automated Milligen 9050 Peptide Synthesizer using standard solid phase chemistry with FMOC protected amino acids on a p-alkoxybenzyl alcohol resin. Dried peptides were re-suspended in the HEPES/Triton Binding buffer at a concentration of 10 mg/ml. Peptide inhibition was performed by adding the peptide first to the in vitro translation product and then the GST-fusion followed by the GSH-Sepharose. The binding/washing steps were as previously described. The peptides synthesized and the PTPs they were derived from were:
In order to characterize the regions involved with the binding between PTP HSCF and PSTPIP, a rapid and direct in vitro binding assay was performed. […]

With pervanadate, the “phosphotyrosine content of PSTPIP in the absence versus presence of the inhibitor” value in assay [1] (anti-phosphotyrosine blot, FIG. 6A) is reported as “lower phosphotyrosine content”. `[O]=[V]([O-])([O-])[O-]` [vanadate]: the “tyrosine phosphorylation of endogenous PSTPIP” value in assay [1] (with tyrosine phosphatase inhibitor, FIG. 6) is given as “significantly enhanced”. With GGVLRSISVPAPPTLPMADT [control peptide], the “ability to block the PTP HSCF-PSTPIP interaction” value in assay [2] is given as “completely unable to block the interaction”. As for PXXP-PEST peptide (PTP PEST 761-780), in assay [3], the concentration at which the peptide blocks the interaction (as low as) was 800 nM.

PXXP-PEP peptide (PTP PEP 782-800) had a concentration at which the peptide blocks the interaction (as low as) in assay [3] of 800 nM.

Molecule PXXP-HSCF peptide (PTP HSCF 432-451) registered a concentration at which the peptide blocks the interaction (as low as) in assay [3] of 800 nM. With GGVLRSISVPAPPTLPMADT [PXXP-CONTROL peptide (PTP HSCF 334-353)], in assay [4], the binding result is “no binding”.

B1: GST PSTPIP: GST fusion protein containing full-length PSTPIP (amino acids 2-415) (protein)
chain: MAQLQFRDAFWCRDFTAHTGYEVLLQRLLDGRKMCKDVEELLRQRAQAEERYGKELVQIARKAGGQTEMNSLRTSFDSLKQQTENVGSAHIQLALALREELRSLEEFRERQKEQRKKYEAIMDRVQKSKLSLYKKTMESKKAYDQKCRDADDAEQAFERVSANGHQKQVEKSQNKAKQCKESATEAERVYRQNIEQLERARTEWEQEHRTTCEAFQLQEFDRLTILRNALWVHCNQLSMQCVKDDELYEEVRLTLEGCDVEGDINGFIQSKSTGREPPAPVPYQNYYDREVTPLIGSPSIQPSCGVIKRFSGLLHGSPKTTPSAPAASTETLTPTPERNELVYASIEVQATQGNLNSSAQDYRALYDYTAQNSDELDISAGDILAVILEGEDGWWTVERNGQRGFVPGSYLEKL
Turning to B1, in assay [5], the “efficiency of precipitating in vitro translated PTP HSCF” value is “more efficient at precipitating the phosphatase”.

The values are drawn from patent US6111073A, “Tyrosine phosphorylated cleavage furrow-associated proteins (PSTPIPs)” (Genentech, Inc., priority 1998, dated 2000).
